From the supplement of paper PMC9170038

Tested on: MS2 coat protein
Assay: apparent KD of MS2 coat protein; higher = weaker reporter binding
Conditions: Eterna round: R107
Outline: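 Designed RNA switches were transcribed on-chip from Illumina sequencing clusters and titrated with SNAP-549-labelled MS2 coat protein in twofold steps from 0.7 or 1.5 nM up to 3 µM. Each step lasted 0.8–1.5 h at first and 10–20 min by the end, in 100 mM Tris-HCl pH 7.5, 80 mM KCl and 4 mM MgCl2, without or with constant ligand. Apparent KD is the median, for each design, of fits to normalised cluster binding curves.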

[1] = input ligand: theophylline 20 uM
[2] = input ligand: theophylline 2 mM
[3] = input ligand: tryptophan 2.4 mM

## UUUAAUUUAAUAGAUACCAGCUAAUAAUAAUCCCGGAGGACAUGAGGAUCACCCAUGUGGAGCCCUUGGCAGCUAAAAUAAAUUU [Exclusion - Theophylline B]
Input ligand: arginine 13.2 mM
  apparent KD of MS2 coat protein: 20.1 nM
Input ligand: none
  apparent KD of MS2 coat protein: 32.9 nM
[1]
  apparent KD of MS2 coat protein: 63.7 nM
[2]
  apparent KD of MS2 coat protein: 22.4 nM
[3]
  apparent KD of MS2 coat protein: 28.9 nM

## UCGACGAUGACCAAAGGUCAGGAGUACGUACGAGGACCGGUACGGCCGCCACUCGAGGAGUGGGACAUGAGGAUCACCCAUGUGG [#20 Exclusion Tryptophan A]
Input ligand: arginine 13.2 mM
  apparent KD of MS2 coat protein: 16.6 nM
Input ligand: none
  apparent KD of MS2 coat protein: 38.2 nM
[1]
  apparent KD of MS2 coat protein: 51.4 nM
[2]
  apparent KD of MS2 coat protein: 43.7 nM
[3]
  apparent KD of MS2 coat protein: 37.4 nM

## ACACGAAGCUGAAGGAGCGUGGUACAAGUUUUUACAUGAGGAUCACCCAUGUUUCGUCAAUCACAGGUAGGUCGCAGAUGCGUGA [#08 Same State - Arginine B]
Input ligand: arginine 13.2 mM
  apparent KD of MS2 coat protein: 32.1 nM
Input ligand: none
  apparent KD of MS2 coat protein: 29.2 nM
[1]
  apparent KD of MS2 coat protein: 42.5 nM
[2]
  apparent KD of MS2 coat protein: 36.6 nM
[3]
  apparent KD of MS2 coat protein: 25.9 nM

## AGAUUCGACACGGCCGCCACUUGUGGUGGAGGGUCUUUAGUCACACAUGAGGAUCACCCAUGUACAAGGACCGGGUGUUGAGUCU [XTryp B #23]
Input ligand: arginine 13.2 mM
  apparent KD of MS2 coat protein: 19.1 nM
Input ligand: none
  apparent KD of MS2 coat protein: 19.3 nM
[1]
  apparent KD of MS2 coat protein: 14.2 nM
[2]
  apparent KD of MS2 coat protein: 25.4 nM
[3]
  apparent KD of MS2 coat protein: 36.3 nM

## ACGGAGAUUGCUAAAUGUUGGCGAGCGGAUACCAGCCUAUAAUCGGGCCCUUGGCAGCCGACAUGAGGAUCACCCAUGUAAACAA [Gelelaor]
Input ligand: arginine 13.2 mM
  apparent KD of MS2 coat protein: 12.3 nM
Input ligand: none
  apparent KD of MS2 coat protein: 121 nM
[1]
  apparent KD of MS2 coat protein: 98.9 nM
[2]
  apparent KD of MS2 coat protein: 87.3 nM
[3]
  apparent KD of MS2 coat protein: 58.6 nM

## AUACAUGAGGAUCACCCAUGUCAUUCAGAAGGAGCGUCAUUUUAGACAGGUAGGUCGCUGUUAUUUUUAUUAUUCUUUAUGUUUU [JR_Nu_ExcArginiA_Sub025]
Input ligand: arginine 13.2 mM
  apparent KD of MS2 coat protein: 19.4 nM
Input ligand: none
  apparent KD of MS2 coat protein: 20.1 nM
[1]
  apparent KD of MS2 coat protein: 27.2 nM
[2]
  apparent KD of MS2 coat protein: 21.3 nM
[3]
  apparent KD of MS2 coat protein: 20.5 nM

## ACAUGAGGAUCACCCAUGUACAUAAGGGAAGGAGCGCGGUGAGACGCAGGUAGGUCGCCCAUAAUAACAAACAUUAAAUUCAUGU [#25 Same State - Arginine A]
Input ligand: arginine 13.2 mM
  apparent KD of MS2 coat protein: 17.2 nM
Input ligand: none
  apparent KD of MS2 coat protein: 17.7 nM
[1]
  apparent KD of MS2 coat protein: 25.5 nM
[2]
  apparent KD of MS2 coat protein: 21.3 nM
[3]
  apparent KD of MS2 coat protein: 19.1 nM

## GUUUACAUGAGGAUCACCCAUGUCGCCGGCCGAGGACCGGUACGGCCGCCACUCGUCCUAAUGGCACUUGACUUCCCUAUUAAGU [theeternabot_sameState_MS2_Trp_A_33]
Input ligand: arginine 13.2 mM
  apparent KD of MS2 coat protein: 20.4 nM
[1]
  apparent KD of MS2 coat protein: 31.3 nM
[2]
  apparent KD of MS2 coat protein: 25.5 nM

## UUUUUUUUGGGAAGGAGCGGGAACAUGUGGAUCUCCCAUGUACAUGAGGAUCACCCAUGUACCCAGGUAGGUCGCUCAUUUUUUU [Exclusion - Arginine B]
Input ligand: arginine 13.2 mM
  apparent KD of MS2 coat protein: 28.4 nM
Input ligand: none
  apparent KD of MS2 coat protein: 25.8 nM
[1]
  apparent KD of MS2 coat protein: 38.6 nM
[2]
  apparent KD of MS2 coat protein: 37.8 nM
[3]
  apparent KD of MS2 coat protein: 26 nM

## GGACUAACUCGAAGGAGCGACGCGCAGAAACUGCAAUUUCCUCCACACGAGGAUCACCCGUGUCAGGUAGGUCGCGAGUUAGUCG [ArgBX 29]
Input ligand: arginine 13.2 mM
  apparent KD of MS2 coat protein: 14.9 nM
Input ligand: none
  apparent KD of MS2 coat protein: 12.8 nM
[1]
  apparent KD of MS2 coat protein: 18.6 nM
[2]
  apparent KD of MS2 coat protein: 14.7 nM
[3]
  apparent KD of MS2 coat protein: 16 nM

## UUGGGUUUGUGAAGGAGCGGGAAUGUUUUAUAGUGGAUCCUAACAUGAGGAUCACCCAUGUCCCAGGUAGGUCGCGCGGGUUUGG [12.S]
Input ligand: arginine 13.2 mM
  apparent KD of MS2 coat protein: 40.1 nM
Input ligand: none
  apparent KD of MS2 coat protein: 64.8 nM
[1]
  apparent KD of MS2 coat protein: 100 nM
[2]
  apparent KD of MS2 coat protein: 79.9 nM
[3]
  apparent KD of MS2 coat protein: 55.5 nM

## ACUCGGUGUUUGUUGCUCCGAGUUUAUGAUACCAGUUAGUUUUAUGGCCCUUGGCAGCAUAGGACAUGAGGAUCACCCAUGUGUU [#03 SameState-TheophyllineA]
Input ligand: arginine 13.2 mM
  apparent KD of MS2 coat protein: 26.2 nM
[1]
  apparent KD of MS2 coat protein: 38.6 nM
[3]
  apparent KD of MS2 coat protein: 32.2 nM

## AUAUGAUCAUGUGAUACCAGAAAUGGUAGUCCUCGCUGGAUUACAUGAGGAUCACCCAUGUUCCCUUGGCAGCAUAUGAUCAUAU [#02 Exclusion-TheophyllineB]
Input ligand: arginine 13.2 mM
  apparent KD of MS2 coat protein: 50.5 nM
[1]
  apparent KD of MS2 coat protein: 122 nM
[3]
  apparent KD of MS2 coat protein: 60.9 nM

## UAUAUAUAUCACUAACUGUUCUUGAGGUCUCGAGGACCGGUACGGCCGCCACUCGUGCCGCCUCACAUGAGGAUCACCCAUGUCC [XTryp A #2]
Input ligand: arginine 13.2 mM
  apparent KD of MS2 coat protein: 55.3 nM
[1]
  apparent KD of MS2 coat protein: 79.4 nM
[2]
  apparent KD of MS2 coat protein: 81.6 nM

## AUGUCAUUGGUGCAGCUGUUAAAUGGCGAUACCAGCGUGGAAACACGCCCUUGGCAGCGCCAAAACAUGAGGAUCACCCAUGUUA [Zlin]
Input ligand: arginine 13.2 mM
  apparent KD of MS2 coat protein: 23 nM
[1]
  apparent KD of MS2 coat protein: 54.6 nM
[3]
  apparent KD of MS2 coat protein: 27.1 nM

## UUAUUUAUAAUGGAUACCAGUUUAAUGGCCGCAAAUCCUGACAUGAGGAUCACCCAUGUAAGCCCUUGGCAGCUGUUAUGGGUUU [XTheo B #24]
Input ligand: arginine 13.2 mM
  apparent KD of MS2 coat protein: 34.2 nM
[1]
  apparent KD of MS2 coat protein: 47.3 nM
[3]
  apparent KD of MS2 coat protein: 35.2 nM
